Non-standard residues stand in square brackets, D forms with d. No end group written: not given here. Sta = CC(C)C[C@H](N)[C@@H](O)CC(=O)O
What was measured:
[1] = target: T1, pQE70-Met-Arg-Gly-Ser-Phe-Val-Glu-...Thr-Asp-Glu-Ser-Arg-Ser-(His)6 E. coli expressed recombinant human BACE (human, UniProt P56817 57-453); experiment: affinity chromatography on peptide-coupled resin, bound at acidic pH, eluted at pH 8.5
T1 construct: C-terminal His6 tag is part of the construct; also called pQE70-BACE
Procedure: Prior to purification, the pH of the refolded protein was lowered from about 10 to 8.5 with HCl. The solution was loaded onto three 50 ml Q-Sepharose columns (Pharmacia Biotech XK 50). The columns were pre-equilibrated in 0.4 M Urea, 10 mM AMPSO, pH 8.5. After refolded protein was loaded onto the columns, they were washed with 500 ml of 0.4 M Urea, 10 mM TRIS, pH 8.2. The columns were eluted with 180-245 ml of 0.75 M NaCl in 0.4 M Urea 10 mM TRIS buffer, pH 8.2. The eluates were then dialyzed versus 20 mM HEPES, pH 8.0. The samples were then removed from dialysis and dropped into 1 M NaMES, pH 5.7 (0.1 M final concentration). After centrifugation (20 Kxg) the supernatant was dropped into 1 M Na-acetate, 1 M NaMES, pH 5.0 (0.2 M Na-acetate, 0.28 M Na-MES was the final concentration). […] This solution was then applied to a 15 ml affinity column equilibrated at the same pH. The column was washed with 6 column volumes of 20 mM sodium acetate buffer pH 4.5, 150 mM NaCl. BACE was eluted at pH 8.5 using about 50 ml of 0.1 M borate buffer. […] Purified pQE70-BACE was dialyzed into 100 mM NaBorate pH 8.5.

[2] = target: T2, CHO cell expressed recombinant human beta secretase proteolytically cleaved with HIV protease (human, UniProt P56817 61-453); experiment: affinity chromatography on peptide-coupled resin
T2 construct: N-terminus at V40 after cleavage of the F39-V40 bond; also called HIV-1 protease treated beta secretase; HIV protease treated CHO produced beta secretase

[3] = target: T3, pQE80L-Met-Arg-Gly-Ser-(His)6-Gly-Ser-Ile-Glu-Thr-Asp-(TQH...QTDES) E. coli expressed recombinant human BACE (human, UniProt P56817 22-453); experiment: affinity chromatography on peptide-coupled resin, bound at pH 4.5, eluted at pH 8.5
T3 construct: N-terminal His6 tag is part of the construct; also called pQE80L-BACE; pQE-80-BACE

[4] = target: T4, pET11a-T7.Tag-Gly-Ser-Met-(A-GV...QTDES) E. coli expressed recombinant human BACE (human, UniProt P56817 14-453); experiment: as above
T4 construct: The construct carries an N-terminal T7 tag; also called pET11a-BACE; beta secretase

Measured: binding result

T4 sequence (P56817 other isoform, or with tags, fused parts or gaps limits assumed): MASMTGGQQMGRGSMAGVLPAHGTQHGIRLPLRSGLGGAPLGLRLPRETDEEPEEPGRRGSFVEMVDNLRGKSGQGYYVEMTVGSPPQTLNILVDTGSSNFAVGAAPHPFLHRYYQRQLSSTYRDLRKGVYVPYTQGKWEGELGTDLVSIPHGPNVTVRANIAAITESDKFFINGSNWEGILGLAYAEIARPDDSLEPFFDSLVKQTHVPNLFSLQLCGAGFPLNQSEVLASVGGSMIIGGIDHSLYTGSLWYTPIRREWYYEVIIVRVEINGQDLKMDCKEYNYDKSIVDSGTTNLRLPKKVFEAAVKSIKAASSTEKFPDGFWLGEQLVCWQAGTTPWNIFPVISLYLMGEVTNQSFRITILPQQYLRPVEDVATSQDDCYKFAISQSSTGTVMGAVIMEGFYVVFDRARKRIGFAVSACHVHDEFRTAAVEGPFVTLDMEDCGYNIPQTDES
T3 sequence (P56817 other isoform, or with tags, fused parts or gaps limits assumed): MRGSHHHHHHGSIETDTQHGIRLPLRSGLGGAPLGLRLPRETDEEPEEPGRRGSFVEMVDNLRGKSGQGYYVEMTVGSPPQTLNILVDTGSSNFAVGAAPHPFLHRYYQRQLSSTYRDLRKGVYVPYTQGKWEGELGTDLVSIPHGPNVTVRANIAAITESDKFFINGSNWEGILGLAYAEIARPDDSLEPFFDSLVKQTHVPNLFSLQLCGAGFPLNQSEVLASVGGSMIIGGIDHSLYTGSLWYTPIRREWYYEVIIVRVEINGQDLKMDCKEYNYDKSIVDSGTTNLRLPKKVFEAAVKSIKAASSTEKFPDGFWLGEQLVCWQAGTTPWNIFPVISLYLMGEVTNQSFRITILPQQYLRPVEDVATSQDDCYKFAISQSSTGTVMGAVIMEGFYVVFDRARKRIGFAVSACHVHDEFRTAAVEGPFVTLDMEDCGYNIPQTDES
T1 sequence (P56817 other isoform, or with tags, fused parts or gaps limits assumed): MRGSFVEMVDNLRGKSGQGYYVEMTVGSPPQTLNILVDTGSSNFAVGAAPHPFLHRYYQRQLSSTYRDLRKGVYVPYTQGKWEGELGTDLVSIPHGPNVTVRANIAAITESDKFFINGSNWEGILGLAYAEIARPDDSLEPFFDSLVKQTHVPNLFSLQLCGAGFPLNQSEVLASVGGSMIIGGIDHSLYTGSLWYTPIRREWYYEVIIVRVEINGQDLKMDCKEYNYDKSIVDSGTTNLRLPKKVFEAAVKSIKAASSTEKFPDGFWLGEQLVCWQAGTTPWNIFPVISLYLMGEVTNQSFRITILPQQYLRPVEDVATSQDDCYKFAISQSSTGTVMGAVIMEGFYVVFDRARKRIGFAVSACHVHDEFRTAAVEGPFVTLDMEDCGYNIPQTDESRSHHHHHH
T2 sequence (P56817 other isoform, or with tags, fused parts or gaps limits assumed): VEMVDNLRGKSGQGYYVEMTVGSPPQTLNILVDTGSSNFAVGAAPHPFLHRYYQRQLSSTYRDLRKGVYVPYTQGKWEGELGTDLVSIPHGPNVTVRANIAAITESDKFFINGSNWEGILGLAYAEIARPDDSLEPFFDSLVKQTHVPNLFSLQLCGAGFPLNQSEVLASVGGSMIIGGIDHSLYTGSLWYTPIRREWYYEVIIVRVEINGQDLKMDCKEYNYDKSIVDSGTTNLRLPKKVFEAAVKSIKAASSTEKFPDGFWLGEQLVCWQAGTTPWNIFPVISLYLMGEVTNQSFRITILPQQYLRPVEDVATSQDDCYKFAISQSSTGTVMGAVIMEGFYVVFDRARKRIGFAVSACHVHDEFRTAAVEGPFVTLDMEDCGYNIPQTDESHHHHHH

SEVN[Sta]VAEFRGGC (also: coupled to Sulfolink resin via Cys) [synthetic peptide Ser-Glu-Val-Asn-Sta-Val-Ala-Glu-Phe-Arg-Gly-Gly-Cys (where Sta=statine)]
binds: all assays above
